Laboratory results taken from publication PMC3153647 (The Journal of Cell Biology, 2011).

Target: T1, His-tagged Stx6 (aa 1–234) (human, UniProt O43752 1-234)
T1 sequence: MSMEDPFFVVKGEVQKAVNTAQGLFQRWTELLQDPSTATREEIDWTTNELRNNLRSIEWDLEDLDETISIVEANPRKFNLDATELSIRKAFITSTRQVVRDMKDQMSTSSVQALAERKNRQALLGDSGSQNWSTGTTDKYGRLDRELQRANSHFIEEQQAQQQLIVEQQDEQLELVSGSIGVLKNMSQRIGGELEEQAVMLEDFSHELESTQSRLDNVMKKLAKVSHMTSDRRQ
Test: pull-down

B1: GST-Cog6 (aa 1–200), bacterial (domain or fragment)
chain: MAEGSGEVVAVSATGAANGLNNGAGGTSATTCNPLSRKLHKILETRLDNDKEMLEALKALSTFFVENSLRTRRNLRGDIERKSLAINEEFVSIFKEVKEELESISEDVQAMSNCCQDMTSRLQAAKEQTQDLIVKTTKLQSESQKLEIRAQVADAFLSKFQLTSDEMSLLRGTREGPITEDFFKALGRVKQIHNDVKVLL
B1: binds.
